Values joined by “and” are separate entries in the source; they are usually repeats but may differ in a detail not shown here. Equal entries are not always repeated.
Columns and labels:
[1] = target: Human talin-1 R1R2-17b (residues 482-786 + additional 17 residues of exon 17b) (human) (UniProt Q9Y490); assay: SEC; analytical gel filtration, Superdex 200 Increase 10/300 GL, run at room temperature; VD1 preincubated with talin R1R2 at a 3:1 ratio for 1 h at 37°C; 100 µl, 100-400 µM protein
[2] = target: T1, Human talin-1 R1R2-WT (residues 482-786) (human, UniProt Q9Y490 482-786); assay: NMR titration; 1H,15N TROSY spectra of 100 µM R1R2 alone and with 300 µM RIAM peptide; 50 mM NaCl, 15 mM NaH2PO4, 6 mM Na2HPO4, 2 mM DTT, pH 6.5, 298K; details: both partners purified
T1 construct: talin-1 (TLN1), human, rod domains R1 and R2, residues 482-786 of the 2,541 amino acid protein; codon optimized synthetic gene in pET151; also called wild-type R1R2; talin R1R2-WT; source: E. coli BL21(DE3)*, purified (Nickel-NTA, TEV cleavage, HiTrap Q)
T1 sequence (Q9Y490 482-786): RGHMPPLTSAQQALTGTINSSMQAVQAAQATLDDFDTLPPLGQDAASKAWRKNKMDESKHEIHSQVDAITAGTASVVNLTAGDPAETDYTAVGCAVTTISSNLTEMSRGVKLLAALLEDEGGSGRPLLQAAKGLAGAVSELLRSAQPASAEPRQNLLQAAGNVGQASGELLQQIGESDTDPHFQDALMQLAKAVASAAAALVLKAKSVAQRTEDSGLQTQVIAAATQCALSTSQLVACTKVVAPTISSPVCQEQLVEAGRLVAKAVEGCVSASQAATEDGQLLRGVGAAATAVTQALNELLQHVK

## Vinculin domain 1 (VD1) (from UniProt P18206 1-258) (domain or fragment)
[1]
  stoichiometry N (vinculin per talin): 2 and 3

B1: RIAM peptide (residues 4-30) (peptide)
peptide: SEDIDQMFSTLLGEMDLLTQSLGVDTC
notes: RIAM (Rap1-effector), residues 4-30 as printed; source: synthetic peptide (GLBiochem)
[2]
  binding result: binds

From article PMC9997659, “TLN1 contains a cancer-associated cassette exon that alters talin-1 mechanosensitivity” (The Journal of Cell Biology, 2023)
